Measurements published in the DeepSol protein solubility set.

experiment: soluble on expression in E. coli; label from the status in PepcDB or PDB records

Sequence	soluble on expression in E. coli
MAHHHHHHMEWVPCTEQTGSVGCREGHCATSLQEKSTGEEWVLVVGGYCEGERDGAVMAARADGLPMLRWVRLDKPNMTWFECDGASLTHVTGDTAYFFGGLNEHMNHSNQLLCLSLHQGQQGDLSLDVVKVETTGDVPLPRARHSAGSAGRYFVVFGGETEDAEQNNDGYILDTDTMVWTRIPTGHQVPNPRLLAGPLVFYSPHGCILYGGAHFVNGDIRSMSDVWNLHIPLGGTWFNVSYGDGAPACRFPRSNGHAGGVLGRVGGETVVVFVGGKDAAEGCDRVKQVQPPKSAEDKFHLRLVDPVLAGGEGPHWRYTPAAVDTRRGVLLLGGQCRHPQEVAAFLLKQTGVTLQR	not soluble
MAHHHHHHMEYDDGEYGRESSVEALAQSQESEQVASAASGLPESSSSAGSAKPSFRILSTRQLAQWARVRHQMDVGCSGNTVWTVSSAKHGNGVLHLMRHHDLNNFWQSDGVLPHVIRIQLGQLTPVEAMAVYVNSAVDQSYSPRVIRVKAGTHNGDMTEVAKADIGAGQECGWVLITLREMAGDDGDDVEGGGPNDGGGGVAAGVRIQHQQQEVRPRQQDGGAPEGGAASSYSPPIPYSEVAAALGHGNHATPSSAGVQTSAAMPRIPRSTSNPADRWLWCTLIDIYICENQFNGRDCHLRGIRLMGPRYEELERVSNADATGTVTCARPLQGGEPLEGTADELQLR	not soluble
MAHHHHHHMFKCATRCLLDTKTVPLKPQRPFKLHTAGRTDMAPLPTQAVYDAEQLKQSLALMFRIRRMESLCDQSYKLKKIRGFCHLYIGQEAIPAGMENVLTFEDPIITGYRDHGWYISRGGKPEDVFAEMFGRQGGCSKGKGGSMHMYRVDNGFYGGNGIVGAQVSIGAGLAWRFAMENRDSPKHVAVTFYGDGAANQGQIYESMNIAALQRLPVIFAVENNHFGMGTSAARGSYQAEFYRRGDYIPGIKVDGMDVLAVQEGTRYARDYCMSGKGPIVMELDCYRYMGHSMSDPDNQYRTKSDIQHVKQERDCIRKMREFMATEGIMTEDEMSKMEKDVKKEVDQDLQKAQKQPMTKLDELFTDIYVGEQYEHRTCQGTVYHKP	not soluble
MAHHHHHHMGANGSKTASSSSAVPAATTTTGDNKGTVNRWYGAVSDASDADLGLAPDVSLSSDISTPEENAAKRKAYAHLQSPYARHQLAASMKGRGSSGNNGAEASATAHVNLIEQIYNEDFETIDHIQALRLPPMVSQQLKNTVRSEAERRCAEVEKTMARCLQDKMWTSWKCQKERDTYYHCVEEIEQRNLRPDPTNPHWVDMLTSFRWKYNLGVFHGEIIGRNNIMKQIWREHYPDRELPHPWVKDA	not soluble
MAHHHHHHMGAPLREDPYNIKTPISDGTTIIGIIYEHGVMLACDTRTSSGTLVSNKCSRKINRINENIYACRSGASAHSQKVIELIKHFCLSMKCENRKKGRFHEDEVITDDLANEEDIDLSAINNPFGLAQNMDPNYVTKHKYFYEDKFMDFNPLVENVAHMTKKLLYANNHFLSCGLILGGYDKEKKQQLYSVNLNGSIVQRFDYAVSGSGSVYIQSYLQDKYKKNMSKKECFELILGCVKYAMYNDNSSGGIVRIVNMTKLFVEEFTVTNTQLHFDY	soluble
MAHHHHHHMGGAHNEGVQDGGAQDATTLYDELYLLFDEYIVRNCKQPNTYESLFCKKEFVQFAKLHGTSVVVTSPKKEIKNKDEIIDELIYAFKLFAKYTSMCDFFSKNEEVDDINTIYLKFLLIPYILGVLCYETISMEIRSDRLKEAKLYFGEFINVVNVYKIAPVEDYLLDEGGEVNQAMNRRNIKVKRAKDEKKLQDFYDDMIKMNVKKGSSQNYNHLCFADHMEEEQIREIYLSLIKCKCLQTLNMMDLIDTEIEVLEMRNRQQVQDKQHQNGKPTQGTKDTHDGQPPHQNKHPKDGIKKPWLFTIKKNMPLADMTQMRNYYRDLVFTPAHNLPTISLEECAKIEMEYALKGEGMAPRSEEERRGNPKSGTIKGAAQNGTDDEEDYEKSSKEESEKELMDREWDDWKDMHQKGIGNKNRNVA	soluble
MAHHHHHHMGIYIFCLFPKGGRESKWGKPTITTKKVQGMPFPHPSHHHHHYHQKQQKTHHCHPRCTLVFLRQARAHKAITPPDVQRRTQRLNAQGKTTKKKSYDDGPPFFLFEKKKKRKAERHKEKGEKEGKGNVNTYRIVKEKEKVNKYLIYFYNNNNNYYYTYVCVYIHTTT	not soluble
MAHHHHHHMGKAAKGRTAMPGKLDTTEADKRTPKSIIIYRGEVGIHVRSLMHEWRNVFLPWSSKKLHGKNKSLKDFLAVAATFSASHLQLFTAPSQGTSLRIMRFFNGPTLSFRVLSFTLHKEIVAKQRRPVAVDRAAWEVAPIVVLNNFTHPDLAHRAEVPLLTATFKALFPSLNVQTIQSSEIQRICLFHYDHVEHVVEVRHYYINARTVGVTKTVKKLLENRRPTKLGTLESIDEVLDREDAWSDTDG	not soluble
